Source: IntAct's records for PubMed 22975076

Molecular target: tif1b_human TRIM28 (UniProt Q13263)
Sequence (Q13263 whole entry): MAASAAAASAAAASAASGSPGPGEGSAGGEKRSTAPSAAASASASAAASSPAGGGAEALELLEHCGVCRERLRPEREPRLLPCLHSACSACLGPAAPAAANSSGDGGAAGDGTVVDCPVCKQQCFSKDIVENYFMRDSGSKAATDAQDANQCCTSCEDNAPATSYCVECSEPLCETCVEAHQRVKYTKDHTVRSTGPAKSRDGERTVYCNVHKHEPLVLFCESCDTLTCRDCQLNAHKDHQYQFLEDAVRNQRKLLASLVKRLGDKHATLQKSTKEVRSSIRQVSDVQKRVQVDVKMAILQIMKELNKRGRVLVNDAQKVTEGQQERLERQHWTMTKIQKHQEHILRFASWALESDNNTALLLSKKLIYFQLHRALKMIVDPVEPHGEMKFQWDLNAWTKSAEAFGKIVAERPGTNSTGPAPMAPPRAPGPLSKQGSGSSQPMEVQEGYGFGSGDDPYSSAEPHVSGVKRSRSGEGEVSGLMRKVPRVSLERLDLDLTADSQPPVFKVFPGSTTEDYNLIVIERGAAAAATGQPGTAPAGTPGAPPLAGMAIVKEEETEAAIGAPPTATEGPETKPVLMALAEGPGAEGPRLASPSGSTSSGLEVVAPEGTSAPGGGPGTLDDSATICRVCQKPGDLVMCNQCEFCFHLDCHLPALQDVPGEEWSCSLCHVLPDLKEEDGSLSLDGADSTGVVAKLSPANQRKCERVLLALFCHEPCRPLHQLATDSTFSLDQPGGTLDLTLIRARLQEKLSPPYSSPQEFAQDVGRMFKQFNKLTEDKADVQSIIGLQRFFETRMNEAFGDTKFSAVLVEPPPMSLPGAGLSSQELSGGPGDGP

| Substance | effect of a mutation on the interaction |
| --- | --- |
| Zinc finger protein 350 (Homo sapiens), Q9GZX5 D12A | decreasing interaction |
| Zinc finger protein 350 (Homo sapiens), Q9GZX5 V13A | decreasing interaction |
